Assay results published in IntAct's records for PubMed 23665169.

Biological target: stk25_human STK25 (UniProt O00506)
Sequence (O00506 whole entry, looked up): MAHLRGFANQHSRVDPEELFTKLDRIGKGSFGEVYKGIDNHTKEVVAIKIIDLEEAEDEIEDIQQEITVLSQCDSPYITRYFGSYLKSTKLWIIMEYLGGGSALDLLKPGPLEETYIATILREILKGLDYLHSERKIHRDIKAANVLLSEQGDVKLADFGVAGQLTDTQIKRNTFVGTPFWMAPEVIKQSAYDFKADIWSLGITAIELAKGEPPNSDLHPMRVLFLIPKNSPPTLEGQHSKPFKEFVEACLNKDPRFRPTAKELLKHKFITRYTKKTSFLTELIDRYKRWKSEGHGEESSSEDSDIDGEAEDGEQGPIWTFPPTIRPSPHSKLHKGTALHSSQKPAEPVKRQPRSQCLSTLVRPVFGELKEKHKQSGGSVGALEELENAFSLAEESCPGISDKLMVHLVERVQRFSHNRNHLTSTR

Sequence of Programmed cell death protein 10 (Homo sapiens), Q9BUL8 F76D;L80D;M83D (Q9BUL8 whole entry F76D/L80D/M83D): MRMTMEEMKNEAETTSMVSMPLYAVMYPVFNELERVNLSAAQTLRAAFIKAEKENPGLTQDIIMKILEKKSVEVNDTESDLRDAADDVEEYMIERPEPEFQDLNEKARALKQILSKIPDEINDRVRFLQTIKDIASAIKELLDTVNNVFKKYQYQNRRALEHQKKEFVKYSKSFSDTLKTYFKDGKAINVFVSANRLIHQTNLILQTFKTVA

Programmed cell death protein 10 (Homo sapiens), Q9BUL8 F76D;L80D;M83D
effect of a mutation on the interaction: decreasing interaction strength
